Laboratory results reported in patent US20260008815A1, “CYCLIC PEPTIDE OR SALT THEREOF, AND USES THEREOF” (FUJIFILM Corporation, priority 2023, published 2026).
Numbered stars: 1 amine (or outer) side, 2 acyl side, 3 side chain; on linkers, the order of the positions; unused ones are H or OH. Bridge positions count the residues as written; N and C are the ends. Ends that are not written are not given here. acetyl = acetyl (haloacetyl before ring closure) on the side-chain amine, O=C(C[*:1])[*:2]; COCH2 = acetyl group that carries the bridge

target: T1, Recombinant Human FGFR2 alpha (IIIc) Fc Chimera Protein (Homo sapiens, UniProt P21802); test: ELISA binding affinity of enzymatically synthesized peptide to FGFR; settings: ELISA luminescence signal at 10 nmol/L peptide, SEQ ID NO: 47 at 10 nmol/L standardized to 1; enzyme synthesis product
T1 construct: Fc (chimera); purchased R&D systems 712-FR-050
T1 sequence (P21802 with tags, fused parts or gaps limits assumed): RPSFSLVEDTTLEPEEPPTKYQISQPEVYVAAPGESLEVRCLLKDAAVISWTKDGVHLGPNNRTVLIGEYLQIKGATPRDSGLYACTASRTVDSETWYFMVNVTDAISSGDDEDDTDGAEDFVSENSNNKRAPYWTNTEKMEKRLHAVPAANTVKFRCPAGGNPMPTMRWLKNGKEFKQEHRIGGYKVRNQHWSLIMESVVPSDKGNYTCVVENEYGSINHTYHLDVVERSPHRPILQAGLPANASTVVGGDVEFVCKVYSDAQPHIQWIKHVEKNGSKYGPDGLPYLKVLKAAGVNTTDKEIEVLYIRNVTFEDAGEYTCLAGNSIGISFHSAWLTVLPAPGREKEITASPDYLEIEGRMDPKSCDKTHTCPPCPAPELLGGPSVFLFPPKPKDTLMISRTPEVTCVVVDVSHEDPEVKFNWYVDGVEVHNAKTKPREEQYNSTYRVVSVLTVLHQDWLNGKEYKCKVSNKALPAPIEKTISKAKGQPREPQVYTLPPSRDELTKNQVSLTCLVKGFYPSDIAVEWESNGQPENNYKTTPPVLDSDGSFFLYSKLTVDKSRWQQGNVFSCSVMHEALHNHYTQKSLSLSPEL
Procedure: The binding affinity of the peptide to FGFR was evaluated using an ELISA method.
The binding affinity of the enzymatically synthesized peptide to FGFR was measured by evaluating the amount of the peptide bound to FGFR by ELISA.
First, 5 ng of Recombinant Human FGFR2 alpha (IIIc) Fc Chimera Protein (R&D systems, 712-FR-050) was immobilized in each well of a 96-well plate, and blocked with Pierce Protein-Free (PBS) Blocking Buffer (Thermo, 37572), and a peptide diluted with Can Get Signal Immunoreaction Enhancer Solution I (TOYOBO, NKB-101) was then added and reacted at room temperature for 3 hours. After washing with 0.05% Tween 20-containing phosphate buffered saline (PBS), an anti-Myc antibody (Cell Signaling, 14038S) diluted with Can Get Signal Immunoreaction Enhancer Solution II (TOYOBO, NKB-101) was added and reacted at room temperature for 2 hours. After washing with 0.05% Tween 20-containing PBS, SuperSignal ELISA Femto Substrate (Thermo, 37075) was added, and the luminescence amount was measured. The dose-response relationship was calculated from using the difference between the luminescence amount in the well in which FGFR was immobilized and the luminescence amount in the well in which FGFR was not immobilized, and the concentration of the peptide at the time of reaction, and the binding affinity to FGFR was evaluated according to the following evaluation criteria. The evaluation result preferably satisfies the evaluation criteria A, B, or C.
In a case where a value of a luminescence signal emitted by the cyclic peptide set forth in SEQ ID NO: 47 at a reaction concentration of 10 nmol/L is standardized to 1, evaluation criteria of the luminescence signal value emitted by the cyclic peptide at a reaction concentration of 10 nmol/L is as follows. • A: 0.7 or more • B: 0.5 or more and less than 0.7 • C: 0.1 or more and less than 0.5 • D: less than 0.1.

Evaluation result of binding affinity to FGFR	Substance
A (0.7 or more)	275 (YCEENYLDPEQYQYLIYFK(COCH2)Y; thioether 2-19) [compound 275]
A (0.7 or more)	406 (PCEQQNFHSVIQWHFFAQYK(COCH2)N; thioether 2-20 (inferred)) [compound 406]
A (0.7 or more)	297 (YCEENYLDPEQYQYFIWFK(COCH2)Y; thioether 2-19) [compound 297]
C (0.1 or more and less than 0.5)	372 (QCEQLKYLYQYVLK(COCH2)L; thioether 2-14) [compound 372]
A (0.7 or more)	285 (YCEENYLDPEQYQYFSYFK(COCH2)Y; thioether 2-19) [compound 285]
A (0.7 or more)	397 (YCEENYLDPEQHQYFIYFK(COCH2)H; thioether 2-19 (inferred)) [compound 397]
C (0.1 or more and less than 0.5)	327 (YCEENYADPEQYQYFIYFK(COCH2)Y; thioether 2-19 (inferred)) [compound 327]
A (0.7 or more)	279 (YCEENYLDPEQYQYFVYFK(COCH2)Y; thioether 2-19) [compound 279]
C (0.1 or more and less than 0.5)	412 (QCEYALQYYRFYVAQRHWVDKL; Description of Artificial Sequence: Cyclic peptide) [compound 412]
C (0.1 or more and less than 0.5)	355 (YCEENYLDPEQMQYFIYFK(COCH2)Y; thioether 2-19) [compound 355]
A (0.7 or more)	272 (YCEENYLDPEQYQFFIYFK(COCH2)Y; thioether 2-19) [compound 272]
A (0.7 or more)	317 (YCEENYLDPEQYQYFIYFK(COCH2)T; thioether 2-19 (inferred)) [compound 317]
A (0.7 or more)	329 (YCEENYLDAEQYQYFIYFK(COCH2)Y; thioether 2-19 (inferred)) [compound 329]
C (0.1 or more and less than 0.5)	432 (CENYLDPEQYQYFHYFK(COCH2)Y; thioether 1-17 via acetyl) [compound 432]
A (0.7 or more)	344 (YCEENYLDPEQYQYFKYFK(COCH2)Y; thioether 2-19) [compound 344]
C (0.1 or more and less than 0.5)	420 (YCEAQPYYFQLYRLWHRQEK(COCH2)P; thioether 2-20 via acetyl) [compound 420]
B (0.5 or more and less than 0.7)	396 (YCEENYLDPEQHQYFIYFK(COCH2)R; thioether 2-19 (inferred)) [compound 396]
C (0.1 or more and less than 0.5)	277 (YCEENYLDPEQYQYFGYFK(COCH2)Y; thioether 2-19) [compound 277]
C (0.1 or more and less than 0.5)	380 (YCPPQLVYLYQYLYK(COCH2)L; thioether 2-15 (inferred)) [compound 380]
A (0.7 or more)	333 (YCEENYLDPEQYQYFIAFK(COCH2)Y; thioether 2-19 (inferred)) [compound 333]
C (0.1 or more and less than 0.5)	357 (YCEENYLDPEQYQMFIYFK(COCH2)Y; thioether 2-19) [compound 357]
A (0.7 or more)	400 (VCQQDNYFYPQQWFFFVHYK(COCH2)H; thioether 2-20 (inferred)) [compound 400]
A (0.7 or more)	308 (YCEENYLDPEQYQYFIYFK(COCH2)G; thioether 2-19 (inferred)) [compound 308]
A (0.7 or more)	346 (YCEENYLDPEQYQYFIYFK(COCH2)K; thioether 2-19) [compound 346]

The remaining lines, values behind:

Substance	Evaluation result of binding affinity to FGFR
246 (YCEENYLDPSQYQYFIYFK(COCH2)Y; thioether 2-19 (inferred)) [compound 246]	A (0.7 or more)
47 (KCPQNFINPVQWRYFQHYKN; not fully specified; Description of Artificial Sequence: Cyclic peptide) [compound 47]	A (0.7 or more)
88 (QCPQNFINPVQWRYLQHYK(COCH2)N; thioether 2-19 (inferred)) [compound 88]	A (0.7 or more)
197 (YCEENYFDPEQYQYFIYFK(COCH2)Y; thioether 2-19 (inferred)) [compound 197]	A (0.7 or more)
79 (NCPQNFINPVQWRYFQHYK(COCH2)N; thioether 2-19 (inferred)) [compound 79]	A (0.7 or more)
36 (CRALLRGAPFHLAEK(COCH2); thioether 1-15) [compound 36]	D (less than 0.1)
227 (YCEENYLDWEQYQYFIYFK(COCH2)Y; thioether 2-19 (inferred)) [compound 227]	A (0.7 or more)
103 (QCPQNFINPVQFRYFQHYK(COCH2)N; thioether 2-19 (inferred)) [compound 103]	B (0.5 or more and less than 0.7)
151 (YCGENYLDPEQYQYFIYFK(COCH2)Y; thioether 2-19 (inferred)) [compound 151]	A (0.7 or more)
115 (NCPNYWSQIQWHYFQAYK(COCH2)Q; thioether 2-18 (inferred)) [compound 115]	A (0.7 or more)
117 (LCRNYINPQQWRYFALYK(COCH2)N; thioether 2-18 (inferred)) [compound 117]	A (0.7 or more)
236 (YCEENYLDPGQYQYFIYFK(COCH2)Y; thioether 2-19 (inferred)) [compound 236]	C (0.1 or more and less than 0.5)
162 (YCTENYLDPEQYQYFIYFK(COCH2)Y; thioether 2-19 (inferred)) [compound 162]	A (0.7 or more)
211 (YCEENYLFPEQYQYFIYFK(COCH2)Y; thioether 2-19 (inferred)) [compound 211]	A (0.7 or more)
241 (YCEENYLDPFQYQYFIYFK(COCH2)Y; thioether 2-19 (inferred)) [compound 241]	A (0.7 or more)
135 (QCTYLAQYLVERYHLTK(COCH2)T; thioether 2-17 (inferred)) [compound 135]	C (0.1 or more and less than 0.5)
37 (QCQLNYWDDLQFTYYLQYK(COCH2)V; thioether 2-19) [compound 37]	A (0.7 or more)
41 (LCGNYITPLQWKYFQTYK(COCH2)W; thioether 2-18 (inferred)) [compound 41]	A (0.7 or more)
189 (YCEENNLDPEQYQYFIYFK(COCH2)Y; thioether 2-19 (inferred)) [compound 189]	B (0.5 or more and less than 0.7)
210 (YCEENYLVPEQYQYFIYFK(COCH2)Y; thioether 2-19 (inferred)) [compound 210]	C (0.1 or more and less than 0.5)
